Bridges are numbered along the chain shown (N, C = ends).
Assays:
[1] = Direct HA-binding ELISA of biotinylated peptides on HA coated plates (Example 4); set-up: key to HA binding: absorbance (color) read at 450 nm; details: for HA binding: as repeated in tables 16, 18, 20; for HA direct binding (OD): optical density, summary tables 15, 17, 19
Method in brief: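 N-terminally biotinylated peptides (AEEA spacer) added to HA-coated wells at 0.8 or 0.08 μM, n=3, overnight at 4° C with shaking; biotin-labeled 7 kDa RHAMM as positive control. Bound peptide detected with streptavidin-HRP (1 hr, room temperature) and TMB substrate (5-10 min), absorbance at 450 nm.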

[2] = tested on: IMR90 human fetal lung fibroblasts; assay: Fibrosis assay: active TGF-β levels in TGF-β treated fibroblasts (ELISA); type: cell-based; details: for Fibrosis (% inhib.): % inhibition relative to positive control
Method: Compounds 132, 133, 135, 150, 152, 157-161, 265-269, 275, 277, and 278 were evaluated for their ability to inhibit fibrosis. IMR90 human fetal lung fibroblasts were obtained from ATCC and maintained in DMEM supplemented with 10% fetal bovine serum. In order to examine the effect of peptides on myofibroblast differentiation, 80% confluent cultures were serum starved overnight prior to addition of TGF-β (2 ng/mL, R&D Systems). Cells were treated with TGF-β for 24 hours prior to addition of peptides (10 ng/mL). 48 hours after addition of peptides, culture supernatants were collected and levels of active TGF-β measured using commercially available TGF-β ELISA (Quantikine, R&D Systems).
Values are the Mean and SDM n=3 replicates. *p<0.05, **p<0.01, ***p<0.001 when compared to the +TGFβ1 control. In FIG. 47, where bars are labeled with two compound numbers (“133/150” and “135/152”) this means that the data were pooled for the indicated compounds, i.e., for the non-acetylated and acetylated versions of the indicated peptides.

[3] = Circular dichroism (CD) spectroscopy of linear and stapled peptides in water or 40% TFE/water (Example 3); type: physicochemical; details: for [0]208 mean residue ellipticity: λ = 208 nm; for [0]222 mean residue ellipticity: λ = 222 nm
Method in brief: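 Spectra 180–260 nm at 20 °C, 0.5 mM N-acetylated, C-amidated peptides in 0.1M phosphate buffer (water) or 40% TFE/water, 1 mm path, five scans averaged, buffer baseline subtracted. Mean residue ellipticity reported at 222 and 208 nm with the 222/208 ratio as helicity index.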

[4] = tested on: RHAMM-overexpressing (LR21) cells; assay: Cell migration assay (Boyden chamber, Chemicon ECM510); type: cell-based; details: for inhibition of cell migration (in words): 10 ng/mL peptide, 20 hours, compared to 30% serum control; for Migration (% inhib.): % inhibition relative to positive control
Method in brief: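 Serum-starved LR21 cells (7.5×10^4) placed in the upper Boyden chamber with or without 10 ng/mL peptide, with 30% FBS in DMEM as lower-chamber chemoattractant. Cells crossing the membrane after 20 h quantified by CyQUANT GR fluorescence (480/520 nm); mean of n=3, compared with 30% serum control.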

[5] = [θ]222/[θ]208 ratio in water, summary tables 15, 17, 19
[6] = as repeated in tables 16, 18, 20

Substance	HA binding [1]	HA direct binding (OD) [1] [OD]	Fibrosis (% inhib.) [2] [% inhib.]	[θ]222/[θ]208 ratio of ellipticities [3, 5]	[θ]222/[θ]208 ratio of ellipticities [3, 6]	[0]222/[0]208 ratio of ellipticities ([3]; in 40% TFE/water)	[0]222/[0]208 ratio of ellipticities ([3]; in water)	alpha-helical character by CD (in words) ([3]; in water)	[0]208 mean residue ellipticity ([3]; in 40% TFE/water) [deg cm^2 dmol^−1]	[0]208 mean residue ellipticity ([3]; in water)	[0]222 mean residue ellipticity ([3]; in 40% TFE/water) [deg cm^2 dmol^−1]	[0]222 mean residue ellipticity ([3]; in water) [deg cm^2 dmol^−1]	inhibition of cell migration (in words) [4]	Migration (% inhib.) [4] [% inhib.]	[0]208 mean residue ellipticity at λ=208 nm ([3]; 40% TFE/water) [deg cm^2 dmol^−1]	[0]222/[0]208 ratio of ellipticities ([3]; 40% TFE/water)	[0]222 mean residue ellipticity at λ=222 nm ([3]; 40% TFE/water) [deg cm^2 dmol^−1]	[0]208 mean residue ellipticity at λ=208 nm ([3]; water) [deg cm^2 dmol^−1]	[0]222/[0]208 ratio of ellipticities ([3]; water)	[0]222 mean residue ellipticity at λ=222 nm ([3]; water) [deg cm^2 dmol^−1]	other results
Ac-VSKLRSQLVKRKQN-NH2 [Compound 132]	0.03	0.03	0	0.13	0.13	0.72	0.13	nominal alpha helical character in water	-1.59E+04	-4,85E+03 deg cm^2 dmol^−1	-1.14E+04	-1.10E+03	significantly inhibit cell migration	36	–	–	–	–	–	–	–
Ac-KIKHVVKLKDENSQLKSEVSKLRSQLVKRK-NH2 [Compound 265]	0.10	0.10	0	0.40	0.40	–	–	–	–	–	–	–	significantly inhibit cell migration	63	-2.72E04	0.80	-2.18E04	-2.73E+04	0.40	-1.09E+04	–

Further lines, with some results ahead:

HA binding [1]	HA direct binding (OD) [1] [OD]	Substance	Fibrosis (% inhib.) [2] [% inhib.]	[θ]222/[θ]208 ratio of ellipticities [3, 5]	[θ]222/[θ]208 ratio of ellipticities [3, 6]	[0]222/[0]208 ratio of ellipticities ([3]; in 40% TFE/water)	[0]222/[0]208 ratio of ellipticities ([3]; in water)	alpha-helical character by CD (in words) ([3]; in water)	[0]208 mean residue ellipticity ([3]; in 40% TFE/water) [deg cm^2 dmol^−1]	[0]208 mean residue ellipticity ([3]; in water)	[0]222 mean residue ellipticity ([3]; in 40% TFE/water) [deg cm^2 dmol^−1]	[0]222 mean residue ellipticity ([3]; in water) [deg cm^2 dmol^−1]	inhibition of cell migration (in words) [4]	Migration (% inhib.) [4] [% inhib.]	[0]208 mean residue ellipticity at λ=208 nm ([3]; 40% TFE/water) [deg cm^2 dmol^−1]	[0]222/[0]208 ratio of ellipticities ([3]; 40% TFE/water)	[0]222 mean residue ellipticity at λ=222 nm ([3]; 40% TFE/water) [deg cm^2 dmol^−1]	[0]208 mean residue ellipticity at λ=208 nm ([3]; water) [deg cm^2 dmol^−1]	[0]222/[0]208 ratio of ellipticities ([3]; water)	[0]222 mean residue ellipticity at λ=222 nm ([3]; water) [deg cm^2 dmol^−1]	other results
0.24	0.24	Ac-(cyclo-10-14, cyclo-15-19)-KIKHVVKLK[EENSK][EKSEK]SKLRSQLVKRK-NH2 (Ac-KIKHVVKLKEENSKEKSEKSKLRSQLVKRK-NH2; lactam 10-14, 15-19; SMILES CC[C@H](C)[C@H](NC(=O)[C@H](CCCCN)NC(C)=O)C(=O)N[C@@H](CCCCN)C(=O)N[C@@H](Cc1c[nH]cn1)C(=O)N[C@H](C(=O)N[C@H](C(=O)N[C@@H](CCCCN)C(=O)N[C@@H](CC(C)C)C(=O)N[C@@H](CCCCN)C(=O)N[C@H]1CCC(=O)NCCCC[C@@H](C(=O)N[C@H]2CCC(=O)NCCCC[C@@H](C(=O)N[C@@H](CO)C(=O)N[C@@H](CCCCN)C(=O)N[C@@H](CC(C)C)C(=O)N[C@@H](CCCNC(=N)N)C(=O)N[C@@H](CO)C(=O)N[C@@H](CCC(N)=O)C(=O)N[C@@H](CC(C)C)C(=O)N[C@H](C(=O)N[C@@H](CCCCN)C(=O)N[C@@H](CCCNC(=N)N)C(=O)N[C@@H](CCCCN)C(N)=O)C(C)C)NC(=O)[C@H](CCC(=O)O)NC(=O)[C@H](CO)NC(=O)[C@H](CCCCN)NC2=O)NC(=O)[C@H](CO)NC(=O)[C@H](CC(N)=O)NC(=O)[C@H](CCC(=O)O)NC1=O)C(C)C)C(C)C) [Compound 266]	24	0.63	0.63	–	0.63	best improvement in helicity	–	–	–	–	significantly inhibit cell migration	61	-2.11E04	0.84	-1.77E04	-9.36E+03	0.63	-5.89E+03	inhibition of fibrosis (active TGF-β, in words) ([2]; 10 ng/mL peptide, 48 hours, compared to +TGFβ1 control): strong trend towards inhibition of fibrosis
0.11	0.11	Ac-NLKQKIKHVVKLKDENSQLKSEVSKLRSQLVKRKQN-NH2 [Compound 275]	0	0.35	0.35	–	–	–	–	–	–	–	significantly inhibit cell migration	60	-3.52E04	0.83	-2.96E04	-9.71E+03	0.35	-3.35E+03	–
0.02	0.02	Ac-(cyclo-4,8)-NLK[EKIKK]VVKLKDE-NH2 (Ac-NLKEKIKKVVKLKDE-NH2; lactam 4-8; SMILES CC[C@H](C)[C@@H]1NC(=O)[C@H](CCCCN)NC(=O)[C@@H](NC(=O)[C@H](CCCCN)NC(=O)[C@H](CC(C)C)NC(=O)[C@H](CC(N)=O)NC(C)=O)CCC(=O)NCCCC[C@@H](C(=O)N[C@H](C(=O)N[C@H](C(=O)N[C@@H](CCCCN)C(=O)N[C@@H](CC(C)C)C(=O)N[C@@H](CCCCN)C(=O)N[C@@H](CC(=O)O)C(=O)N[C@@H](CCC(=O)O)C(N)=O)C(C)C)C(C)C)NC(=O)[C@H](CCCCN)NC1=O) [Compound 157]	38	0.38	0.38	0.80	0.38	decreased helicity	-1.56E+04	-6.40E+03 deg cm^2 dmol^−1	-1.25E+04	-2.46E+03	–	0	–	–	–	–	–	–	–

— US10562935B2, “Stapled peptides and uses thereof” (London Health Sciences Centre Research Inc., priority 2015, dated 2020)
